Molecular target: Myeloid-associated differentiation marker (human) (human (endogenous in blood eosinophils of asthmatic volunteers)) (UniProt Q96S97)
UniProt Q96S97, sequence (Q96S97 whole entry): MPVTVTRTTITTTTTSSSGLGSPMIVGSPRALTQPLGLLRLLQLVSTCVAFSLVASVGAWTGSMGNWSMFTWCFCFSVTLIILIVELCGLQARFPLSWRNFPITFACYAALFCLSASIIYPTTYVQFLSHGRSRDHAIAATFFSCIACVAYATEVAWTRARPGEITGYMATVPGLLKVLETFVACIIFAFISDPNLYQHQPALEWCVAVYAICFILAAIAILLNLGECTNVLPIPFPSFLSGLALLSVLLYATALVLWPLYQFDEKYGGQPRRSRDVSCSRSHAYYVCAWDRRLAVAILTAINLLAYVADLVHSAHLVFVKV

Question: For “Surfactant protein A (SP-A), preparation genotyped as homozygous for Q (Q/Q) at position 223 of SP-A2 (from UniProt Q8IWL2 21-248; Q8IWL1 21-248) (complex)”, which percent change in apoptotic human eosinophils (Siglec-8+, Annexin V/PI, flow cytometry, 16 h with SP-A) with pre-treatment using anti-MYADM (Invitrogen PA1-41578) compared to SP-A only is on record?
Answer: Its percent change in apoptotic human eosinophils (Siglec-8+, Annexin V/PI, flow cytometry, 16 h with SP-A) with pre-treatment using anti-MYADM (Invitrogen PA1-41578) compared to SP-A only is 22.5%.

From paper PMC8642528
